Reference: US20260092121A1 (TALEM THERAPEUTICS, published 2026)

B1: anti-TrkB clone 3D03 (antibody, V domains shown)
VH: EVQLVQSGAEVKKPGESLKISCKGSGYSFTSYWIGWVRQMPGKGLEWMGIIYPGDSDTRYSPSFQGQVTISADKSISTAYLQWSSLKASDTAMYYCARLGGSLPIDYWGQGTLVTVSS
VL: QSVLTQPPSVSVSPGQTASITCSGDKLGDKYVSWYQQKPGQSPVLVIYQDSKRPSGIPERFSGSNSGSTATLTISGTQALDEADYYCQAWDNNIGVFGGGTKLTVL
notes: full-length IgG
B2: anti-TrkB clone 3D06 (antibody, V domains shown)
VH: EVQLVQSGAEVKKPGESLKISCQGSGYTFTNYWIAWVRQMPGKGLEWMGIIYPGDSDTRYSPSFQGQVTISADKSISTAYLQWSSLKASDTAMYYCAIGYDYGAFDIWGQGTMVTVSS
VL: QPVLTQPPSASGTPGQRVSISCSGSNSNIGSNSVYWYQQLPGTAPKLLIYRNNQRPSGVPDRFSGSKSGTSASLAISGLRSEDEADYYCAAWDDSLSGYVFGTGTQLTVL
notes: full-length IgG
B3: anti-TrkB clone 3B06 (antibody, V domains shown)
VH: EVQLVQSGAEVKEPGASVKVSCKASGYTFTNYAMHWVRQAPGQRLEWMGWINPNTGGTNYAQKFQGRVTMTRDTSISTAYMELSSLRSDDTAVYYCARGGGGLVFWGQGTLVTVSS
VL: DIVMTQTPLSLPVTLGQPASISCRSSQSLVDRDGNTYLNWFRQRPGQSPRRLIYKVSNRDSGVPGTFSGSGSGTDFTLKISRVEADDVGVYFCMQATHWPPTFGQGTKVEI
notes: full-length IgG
B4: anti-TrkB clone 4D01 (antibody, V domains shown)
VH: EVQLVQSGAEVKKPGESLKISCKGSRYSFTSYWIGWVRQMPGKGLEWMGIIYPGDSDTRYSPSFQGQVTISADKSISTAYLQWSSLKASDTAMYYCARLKDGAFDIWGQGTMVTVSS
VL: QAVLTQPPSASGTPGQRVTISCSGSSSNIEGNYVHWYQQLPGAAPKVLIYRNNQRPSGVPDRFSGSKSGTSASLAISGLRSEDETDYFCAAWDDSLNGYVFGAGTKVTVL
notes: full-length IgG
B5: anti-TrkB clone 2H05 (antibody, V domains shown)
VH: EVQLVESGAEVKKPGESLRISCKGSGYSFTNNWINWVRQMPGKGLEWMGRIDPDDSYTNYSPSFQGHVIFSADKSSNTVYLQWSSLEASDTAMYYCARRAQGGGGYDYWGQGTLVTVSS
VL: QSVLTQPSSVSGAPGQRVTISCTGSSSNIGAGYGVHWYQQLPGTAPKLLIYDDINRPSGVPDRFSGSKSGTSASLAITGLRAEDEADYYCQSYDTSRGGLYVFGSGTKLTVL
notes: full-length IgG
B6: anti-TrkB clone 2E08 (antibody, V domains shown)
VH: QVQLVQSGAEVKKPGESLKISCTGSGYRFSHYWIGWVRQMPGKGLEWMGMIYPDDSDTRYSPSFQGQVTISADKSINTAYLQWTSLRASDSAIYYCATGVISGTDYWGQGTLVTVSS
VL: SYVLTQPPSVSVSPGQTARITCSGDKLGDKYVSWYQLKPGQSPVVVIYQDNKRPSGIPERFSASNSENTGTLTISGTQAMDEADYYCQTWDSGTGVFGTGTKLTVL
notes: full-length IgG

Target: T1, human TrkB-ECD-GST (human, UniProt Q16620 32-430)
T1 construct: in-house fusion, HEK293; also called hTrkB-ECD-GST; human TrkB-GST; not shown: glutathione S-transferase (GST) fusion part
Experiment: ELISA

Binding result, no binding (tested: up to 10 µg/mL):
B1
B2
B3
B4
B5
B6

Target: T2, mouse TrkB-ECD-GST (mouse, UniProt P15209 32-429)
T2 construct: extracellular domain; in-house fusion, HEK293; also called mTrkB-ECD-GST; mTrkB (ELISA); not shown: glutathione S-transferase (GST) fusion part
Experiment: ELISA

Binding result, no binding (tested: up to 10 µg/mL):
B1
B2
B3
B4
B5
B6
